This note sets out measurements from patent US20230348852A1, “METHODS AND COMPOSITIONS FOR OCULAR CELL THERAPY” (NOVARTIS AG, priority 2020, published 2023).

The test system of one series is B2M. In words: sgRNA screening for B2M knockout in LSCs (nucleofection, FACS). The format is cell-based, human. To be noted: Cas9 protein SEQ ID NO: 106, LSCs at passage 3, FACS after around 3 days.
The test system of the next series is CD8+ T-cells. In words: LSC/T-cell reaction assay. The series is classed as cell-based, human. To be noted: B2M/HLA-Class I negative LSCs co-cultured 10 days with CD8+ T-cells from 4 donors. How it is done: An LSC/T-cell assay was performed in flat bottom 96well synthemax coated plates in duplicates and incubated in 5% CO2 at 37° C. for 10 days. RPMI-1640 supplemented with HEPES (100 µM), non-essential aas (10x), sodium pyruvate (10 mM), 2-Mercapthoethanol (10x), 10% FBS and 1% Penicillin-Streptomycin (Gibco by Life Technologies) was used as medium for co-culture. Alternatively, RPMI-1640 supplemented with HEPES (10 mM), non-essential aas (1x), sodium pyruvate (1 mM), 2-Mercapthoethanol (1x), 10% FBS and 1% Penicillin-Streptomycin (Gibco by Life Technologies) was used as medium for co-culture.
One day before co-culture, LSCs (stimulator cells) were passed and cultured to a confluency of around 70% (30′000 - 50′000 cells) and cultured with LSC medium including compound. On day two, peripheral blood mononuclear cells (PBMC) were separated using EDTA blood with the Ficoll-Paque method (GE Healthcare Life Sciences, cat #17-1440-03). […]
After 10 days, CD8+ cells were transferred to a U-bottomed 96-well plate and washed 3 times using autoMAC rinsing solution (Miltenyi Biotec, Cat #130-091-222) including MACS BSA stock solution (Miltenyi Biotec, Cat #130-091-376). Cells were measured on a BD LSRFortessa X-20. FACS data were analyzed using BD FACSDiva software and FlowJo software.

Series [1] concerns genomic DNA purified from male human peripheral blood mononuclear cells. In words: Biochemical assay for potential off-target genomic sites cleaved by Cas9 and B2M guides. To be noted: number of potential off-target sites, guide concentration 64 nM. On the procedure: A biochemical method (See, e.g., Cameron et al., Nature Methods. 6, 600-606; 2017) was used to determine potential off-target genomic sites cleaved by Cas9 and selected B2M guides. Guides showing B2M indel activity were tested for potential off-target genomic cleavage sites with this assay. […] The number of potential off-target sites detected using a guide concentration of 64 nM in the biochemical assay are shown in Table 10. As a result of this analysis, several gRNAs were selected for analysis of potential off-target activity in limbal stem cells.

B1: 1-CR004366: gRNA targeting human B2M; targeting domain SEQ ID NO: 108; sgRNA SEQ ID NO: 120; from Dharmacon (nucleic acid)
guide: GAGUAGCGCGAGCACAGCUAGUUUUAGAGCUAGAAAUAGCAAGUUAAAAUAAGGCUAGUCCGUUAUCAACUUGAAAAAGUGGCACCGAGUCGGUGCUUUU
modifications: listed as RNA, chemistry not given here
notes: gRNA targeting human B2M; from Dharmacon
In the case of B1, the “B2M knockout efficiency in LSCs after nucleofection” value in the series on B2M turned out to be 55%. In addition, in the series with CD8+ T-cells, the “T-cell immune response in co-culture with gene edited LSCs” value is reported as “almost completely eliminated”. In series [1], the “off-target Site_ Count” value is on record as 69.
